How the values were obtained:
MetK [1] = test: MetK mutants radioactive assay in vitro ([methyl-14C]methionine to SAMe); assay type: biochemical, E. coli; conditions: 5 minute reaction time; C-terminal His tagged proteins unless untagged
Description: The metK gene from E. coli (Accession number AP—003499 or BAE77005) was cloned and overexpressed with either an N-terminal or a C-terminal His tag in pET28b vector. Site directed mutagenesis was performed using the C-terminal His tagged metK clone to generate the desired mutants. Expression of the mutant MetK proteins was confirmed.
The MetK mutants were purified (using the C-terminal His tag) and assayed in vitro. The wild type C-terminal His-tagged MetK protein was used as a control. The mutants were assayed using a radioactive assay. The assay conditions were as follows: • Assay Mix: • 1.0 mL 0.5 M HEPES/KOH, pH 8.0 • 0.5 mL 1.0 M KCl • 0.2 mL 1.0 M MgCl2 • 1.0 mL 100 mM ATP (disodium salt, pH 8.0 with KOH) • 0.1 mL 50 mM methionine • 0.1 mL NEN [methyl-^14C]methionine • 6.6 mL H2O • 25 mM EDTA pH 8.0 stop for assays.
45 μl of assay mix was added to an Eppendorf tube and 5 μL of enzyme (normalized data shown in Table 13. The reaction was incubated at room temperature (or 25° C.) for a desired period (1 to 10 minutes). The reaction was stopped with the addition of 150 μL of 25 mM EDTA. 100 μL of the reaction was spotted onto a 2.5 cm diameter Whatman P-81 phosphocellulose filter circle (labeled in pencil). The filters were washed with 3 L of distilled water, air-dried and placed in scintillation vials with aquasol. The emissions were counted using a window that extends from ^14C to about 0. Assay efficiency and quench levels were determined by adding a known amount of counts of pure ^14C-SAM and processing through the whole procedure. Backgrounds are typically<100 cpm (total counts ca. 10^5 cpm per reaction).

MetK [2] = conditions: literature reference; cited from earlier work
MetA = test: In-vitro characterization of purified mutant and wild type MetA enzymes (assay of Lawrence, modified); assay type: biochemical, E. coli
Description: PCR was used to amplify and then clone the five metA mutant genes identified as pCL-A#10, pCL-A#11, pCL-A#32, pCL-A#37, and pCL-A#41, into the pET30a vector. All constructs were subjected to DNA sequence analysis to confirm the presence of mutations. The genes were cloned with a C-terminus His tag for enzyme purification. The enzymes were overexpressed, purified and the activity was measured in the presence of different levels of methionine and SAMe, as described by Lawrence, J. Bacteriol., 109:8-11, 1972. The only modifications to the assay were that multiple points were taken and that the reaction was quenched with guanidine.

[3] = control (no Met or SAM), U = formation of 1 μmole of CoA per minute at room temperature

B1: Gly 77 Val (protein, UniProt P0A817 2-384, looked up, variant G77V)
S-adenosylmethionine synthase: AKHLFTSESVSEGHPDKIADQISDAVLDAILEQDPKARVACETYVKTGMVLVGGEITTSAWVDIEEITRNTVREIVYVHSDMGFDANSCAVLSAIGKQSPDINQGVDRADPLEQGAGDQGLMFGYATNETDVLMPAPITYAHRLVQRQAEVRKNGTLPWLRPDAKSQVTFQYDDGKIVGIDAVVLSTQHSEEIDQKSLQEAVMEEIIKPILPAEWLTSATKFFINPTGRFVIGGPMGDCGLTGRKIIVDTYGGMARHGGGAFSGKDPSKVDRSAAYAARYVAKNIVAAGLADRCEIQVSYAIGVAEPTSIMVETFGTEKVPSEQLTLLVREFFDLRPYGLIQMLDLLHPIYKETAAYGHFGREHFPWEKTDKAQLLRDAAGLK
MetK [1]
  Activity (CPM SAMe/ μg purified protein/min): 6.9 CPM SAMe/ μg purified protein/min

B2: Cys 90 Ser (protein, UniProt P0A817 2-384, looked up, variant C90S)
S-adenosylmethionine synthase: AKHLFTSESVSEGHPDKIADQISDAVLDAILEQDPKARVACETYVKTGMVLVGGEITTSAWVDIEEITRNTVREIGYVHSDMGFDANSSAVLSAIGKQSPDINQGVDRADPLEQGAGDQGLMFGYATNETDVLMPAPITYAHRLVQRQAEVRKNGTLPWLRPDAKSQVTFQYDDGKIVGIDAVVLSTQHSEEIDQKSLQEAVMEEIIKPILPAEWLTSATKFFINPTGRFVIGGPMGDCGLTGRKIIVDTYGGMARHGGGAFSGKDPSKVDRSAAYAARYVAKNIVAAGLADRCEIQVSYAIGVAEPTSIMVETFGTEKVPSEQLTLLVREFFDLRPYGLIQMLDLLHPIYKETAAYGHFGREHFPWEKTDKAQLLRDAAGLK
MetK [2]
  Expected Effect on SAMe synth: % of WT activity: Only 10% of WT
MetK [1]
  Activity (CPM SAMe/ μg purified protein/min): 23.2 CPM SAMe/ μg purified protein/min

B3: Cys 90 Ala (protein, UniProt P0A817 2-384, looked up, variant C90A)
S-adenosylmethionine synthase: AKHLFTSESVSEGHPDKIADQISDAVLDAILEQDPKARVACETYVKTGMVLVGGEITTSAWVDIEEITRNTVREIGYVHSDMGFDANSAAVLSAIGKQSPDINQGVDRADPLEQGAGDQGLMFGYATNETDVLMPAPITYAHRLVQRQAEVRKNGTLPWLRPDAKSQVTFQYDDGKIVGIDAVVLSTQHSEEIDQKSLQEAVMEEIIKPILPAEWLTSATKFFINPTGRFVIGGPMGDCGLTGRKIIVDTYGGMARHGGGAFSGKDPSKVDRSAAYAARYVAKNIVAAGLADRCEIQVSYAIGVAEPTSIMVETFGTEKVPSEQLTLLVREFFDLRPYGLIQMLDLLHPIYKETAAYGHFGREHFPWEKTDKAQLLRDAAGLK
MetK [2]
  Expected Effect on SAMe synth: % of WT activity: Only 10% of WT
MetK [1]
  Activity (CPM SAMe/ μg purified protein/min): Same as WT

B4: Asp 118 Asn (protein, UniProt P0A817 2-384, looked up, variant D118N)
S-adenosylmethionine synthase: AKHLFTSESVSEGHPDKIADQISDAVLDAILEQDPKARVACETYVKTGMVLVGGEITTSAWVDIEEITRNTVREIGYVHSDMGFDANSCAVLSAIGKQSPDINQGVDRADPLEQGAGNQGLMFGYATNETDVLMPAPITYAHRLVQRQAEVRKNGTLPWLRPDAKSQVTFQYDDGKIVGIDAVVLSTQHSEEIDQKSLQEAVMEEIIKPILPAEWLTSATKFFINPTGRFVIGGPMGDCGLTGRKIIVDTYGGMARHGGGAFSGKDPSKVDRSAAYAARYVAKNIVAAGLADRCEIQVSYAIGVAEPTSIMVETFGTEKVPSEQLTLLVREFFDLRPYGLIQMLDLLHPIYKETAAYGHFGREHFPWEKTDKAQLLRDAAGLK
MetK [2]
  Expected Effect on SAMe synth: kcat reduction: kcat reduction of ~ 103 fold
MetK [1]
  Activity (CPM SAMe/ μg purified protein/min): 1.3 CPM SAMe/ μg purified protein/min

B5: WT control: wild type C-terminal His-tagged MetK protein used as a control (protein, UniProt P0A817 2-384, looked up)
S-adenosylmethionine synthase: AKHLFTSESVSEGHPDKIADQISDAVLDAILEQDPKARVACETYVKTGMVLVGGEITTSAWVDIEEITRNTVREIGYVHSDMGFDANSCAVLSAIGKQSPDINQGVDRADPLEQGAGDQGLMFGYATNETDVLMPAPITYAHRLVQRQAEVRKNGTLPWLRPDAKSQVTFQYDDGKIVGIDAVVLSTQHSEEIDQKSLQEAVMEEIIKPILPAEWLTSATKFFINPTGRFVIGGPMGDCGLTGRKIIVDTYGGMARHGGGAFSGKDPSKVDRSAAYAARYVAKNIVAAGLADRCEIQVSYAIGVAEPTSIMVETFGTEKVPSEQLTLLVREFFDLRPYGLIQMLDLLHPIYKETAAYGHFGREHFPWEKTDKAQLLRDAAGLK
modifications: C-terminal His tag
MetK [1]
  Activity (CPM SAMe/ μg purified protein/min): 995.4 CPM SAMe/ μg purified protein/min

B6: Asp 238 Asn (protein, UniProt P0A817 2-384, looked up, variant D238N)
S-adenosylmethionine synthase: AKHLFTSESVSEGHPDKIADQISDAVLDAILEQDPKARVACETYVKTGMVLVGGEITTSAWVDIEEITRNTVREIGYVHSDMGFDANSCAVLSAIGKQSPDINQGVDRADPLEQGAGDQGLMFGYATNETDVLMPAPITYAHRLVQRQAEVRKNGTLPWLRPDAKSQVTFQYDDGKIVGIDAVVLSTQHSEEIDQKSLQEAVMEEIIKPILPAEWLTSATKFFINPTGRFVIGGPMGNCGLTGRKIIVDTYGGMARHGGGAFSGKDPSKVDRSAAYAARYVAKNIVAAGLADRCEIQVSYAIGVAEPTSIMVETFGTEKVPSEQLTLLVREFFDLRPYGLIQMLDLLHPIYKETAAYGHFGREHFPWEKTDKAQLLRDAAGLK
MetK [2]
  Expected Effect on SAMe synth: kcat reduction: kcat reduction of ~ 103 fold
MetK [1]
  Activity (CPM SAMe/ μg purified protein/min): 1.9 CPM SAMe/ μg purified protein/min

B7: WT Untagged: untagged wild type MetK protein, Markham lab (protein, UniProt P0A817 2-384, looked up)
S-adenosylmethionine synthase: AKHLFTSESVSEGHPDKIADQISDAVLDAILEQDPKARVACETYVKTGMVLVGGEITTSAWVDIEEITRNTVREIGYVHSDMGFDANSCAVLSAIGKQSPDINQGVDRADPLEQGAGDQGLMFGYATNETDVLMPAPITYAHRLVQRQAEVRKNGTLPWLRPDAKSQVTFQYDDGKIVGIDAVVLSTQHSEEIDQKSLQEAVMEEIIKPILPAEWLTSATKFFINPTGRFVIGGPMGDCGLTGRKIIVDTYGGMARHGGGAFSGKDPSKVDRSAAYAARYVAKNIVAAGLADRCEIQVSYAIGVAEPTSIMVETFGTEKVPSEQLTLLVREFFDLRPYGLIQMLDLLHPIYKETAAYGHFGREHFPWEKTDKAQLLRDAAGLK
MetK [1]
  Activity (CPM SAMe/ μg purified protein/min): 5600 CPM SAMe/ μg purified protein/min

B8: #11 (protein, listed as Escherichia coli)
chain: MPIRVPDELPAVNFLREENVFVMTTSRAPGQEIRPLKVLILNLMPKKIETENQFLRLLSNSPLQVDIQLLRIDSRESRNTPAEHLNNFYCNFEDIQDQNFDGLIVTGAPLGLVGFNDVAYWPQIKQVLEWSKDHVTSTLSVCWAVQAALNILYGIPKQTRTEKLSGVYEHHILHPHALLTRGFDDSFLAPHSRYADFPAALIRDYTDLEILAETEEGDAYLFASKDKRIAFVTGHPEYDAQTLAQEFFRDVEAGLDPDVPYNYFPHNDPQNTPRASWRSHGNLLFTNWLNYYVYQITPYDLRHMNPTLD
MetA; control
  % of specific activity retention: 100%
MetA; [3]
  Specific activity (U/mg): 479 U/mg
MetA; methionine and SAM inhibition
  feed-back inhibition resistance compared to the wild type enzyme: most resistant
MetA; w/10 mM SAM
  % of specific activity retention: 82%
  Specific activity (U/mg): 395 U/mg
MetA; w/ 100 mM Met
  % of specific activity retention: 94%
  Specific activity (U/mg): 451 U/mg
MetA; w/ 300 mM Met
  % of specific activity retention: 56%
  Specific activity (U/mg): 282 U/mg
MetA; w/ 300 mM Met, listed as metA #11
  % of specific activity retention: 55%

B9: w.t.: wild type E. coli MetA enzyme (homoserine succinyltransferase), C-terminus His tag, purified (protein, UniProt P07623 2-309, looked up)
Homoserine …: PIRVPDELPAVNFLREENVFVMTTSRASGQEIRPLKVLILNLMPKKIETENQFLRLLSNSPLQVDIQLLRIDSRESRNTPAEHLNNFYCNFEDIQDQNFDGLIVTGAPLGLVEFNDVAYWPQIKQVLEWSKDHVTSTLFVCWAVQAALNILYGIPKQTRTEKLSGVYEHHILHPHALLTRGFDDSFLAPHSRYADFPAALIRDYTDLEILAETEEGDAYLFASKDKRIAFVTGHPEYDAQTLAQEFFRDVEAGLDPDVPYNYFPHNDPQNTPRASWRSHGNLLFTNWLNYYVYQITPYDLRHMNPTLD
modifications: C-terminal His tag
notes: wild type E. coli MetA enzyme (homoserine succinyltransferase), C-terminus His tag, purified
MetA; control
  % of specific activity retention: 100%
MetA; [3]
  Specific activity (U/mg): 386 U/mg
MetA; w/10 mM SAM
  % of specific activity retention: 2.9%
  Specific activity (U/mg): 11 U/mg
MetA; w/ 100 mM Met
  % of specific activity retention: 7.6%
  Specific activity (U/mg): 29 U/mg
